Source: the nanobody polyreactivity screen of Harvey et al. (2022)

Test: yeast display, Sf9 membrane polyspecificity reagent, FACS + sequencing; frameworks hold sequencing errors
Summary of the method: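 Synthetic nanobody libraries on Saccharomyces cerevisiae BJ5465 were galactose-induced for 36–48 hours, stained 1 hour at 4 °C with 10% biotinylated, detergent-solubilized Sf9 membrane reagent and enriched on streptavidin microbeads. FACS then separated cells into low and high (top ~1%) gates by anti-HA (expression) and streptavidin (reagent binding) fluorescence. Genes were colony-PCR amplified, MiSeq 2 × 250 sequenced and CDR-length filtered. A clone's polyreactivity label is that of its gate of origin.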

| Sequence | polyreactivity (PSR sort gate) |
| --- | --- |
| QVQLVESGGGFVQAGGSLRLSSAASGINFYRKTMGWYRQAPGKERELVASISRGGSTYYADSVKGRFTISRDNAKNTVYLQMNILKPEDTAVYYCSTSGQQYYSRNFDYWGQGTQVTVSS | low polyreactivity |
| QVQLVESGGGLVQAGGSLRLSCAASGSTFTVYAMGWYRQAPGKERELVAAISWSGGSTYYADSVKGRFTISRDNAKNTVYLQMNSLKPEDTAVYYCAVVIYWRTGEYDYWGQGTQVTVSS | low polyreactivity |
| QVQLVESGGGLVQAGGSLRLSCAASGSIFFPYAMGWYRKAPGKERGLVAAISWRGGITYYADSVKGRFTISRDNAKNTVYLQMNSLKPADTAVYYCAADGPYTGDGALDYWGQGTQVTVSS | high polyreactivity |
| QVQLVESGGGLVQAGGSLRLSCAASGRIFSWYTMGRYRQAPGKERELVADITYSGGSTYYADSVKGRFTISRDNAKNTVYLQMNSLKPEDTAVYYCNADPRWYHFEYGYWGQGTQVTVSS | high polyreactivity |
| QDQLVESGGGLVQAGGSLRLSCAASGSTDYTYDMGWYRQAPGKERELVASITSGGSTNYADSVKGRFTISRDNAKNTVYFQMNSVKPQDTAVYYCAVGTYTIYSGTLYDYKYYWGQGTQVTVSS | low polyreactivity |
| QDQLVESGGGLVQAGGILRLICAASGLTFASYGMGWYRQAPGKERELVAAISSSGGITYYADSVKGRFTISRDNAKNTVYLQMNSLKPEDTAVYYCAAAKRSGYTGFKYYYWGQGTQVTVSS | high polyreactivity |
| QVQLVESGGGLVQAGGSLRLSCAASGFTFGHYAMGWYRQAPGKERELVAAISIDGGRTYYADSVKGRFTISRDNAKNTVYLQMNSLKPEDTAVYYCAAAVAGRKMGYWGQGTQVTVSS | high polyreactivity |
| QVQLVETGGGLVQAGGSLRLSCAASGYTFDGYAMGWYRQAPGKERELVAAINSGGGTYYADSVKGRFTISRDNAKNTVYLLMNSQKPEDTAVYYCAAERVYSDMDYWGQGTQVTVSS | low polyreactivity |
| QVQLVESGGGLVQAGGTLRLTCAASGRIFNSNDMRWYRQAPGKERELVASISPNTGTTYYADSVKGRFTISRDNAKNTVYLQMNSLKPEDTAVYYCAARGVYYQDGLVTGEAEYGYWGQGTQVTVSS | low polyreactivity |
| QVQLVESGGGLVQAGGILRLSCAASGSIFLGNAMGWYRQAPGKERELVAVINSGGDTNYADSVKGRFTISRDNAKNTVYLQMNSLKPEDTAVYYCARRKGKWDSYGGWGQGTQETVSS | low polyreactivity |
| QVQLVESGGGLVQAGGSLRLSCAASGSIFRYYAMGWYRQAPGKERELVATISSSGGTTYYADSVKGRFTISRDNAKNTVYLQMNSLKPEDTAVYYCAALWTWHVSYPVHEYDYWGQGTQVTVSS | low polyreactivity |
| QVQLVESGGGILQAGGSLRLSCAASGFTFLGYVMGWYRQSPGKEREIVADITESGGRTYYADSVKGRFTISRDNAKNTVFLQMNSLKPEDTAVYYCAAELSYWGYYYSFDYWGHGTQVTVSS | low polyreactivity |
| QVQLVESGGGLVQAGGSLRLSCAASGRIFGPYTMGWYIQAPGKEREFVAAITRRGGTTYYADSVKGRFTISRDNAKNTVYLQMNSLKAEDTGVYYCDAVGQKRSLGYSWGQGTQVTVSS | low polyreactivity |
| QVQLVESGGGLVQAGGSLRLSCAASGSISASYAMGWYRQAPGKERELVAAITSGGSTYYADSVKGRFTISRDNAKNTVYLQMNSLKPEDTAVYYCAKRPKRTYYPHIGYDYWGQGTQVTVSS | low polyreactivity |
| QVLLVESGGGLVQAGGSLRLSCAASGSILRTYAMGWYRQAPGKERELVAAITWSGGSTRYADSVKGRFTISRDNAKNTVYLQMNSLKPEDTAVYYCNARYRVYSYALYKYGYWGQGTQVTVSS | high polyreactivity |
| QVQLVESGGGLLQAGGSLRLSCAASGRIFGSYAMGWYRQAPGKERELVAGIRSVGSTNYADSVKGRFTISRDNAKNTVYLQMNSLKPEDTAVYYCAARLWHLSYAGQGGDYWGQGTQVTVSS | low polyreactivity |
| QVQHVESGRGLVQAGGSLRLSCAASGIIFLYYAMGWYREAPGKVRELVAAITGSGGTTYYADSVKGRFTISRDNAMNTVYLQMNSLKPEDTAVYYCATPPPEVWQRWYREYDYWGQGTQVTVSS | low polyreactivity |
| QVQLVESGGGLVQAGGSLRLSCAASGRTFRYNTMGWYRQAPRKERELFAAISRGGRTYYADSVKGRFTISRDNAKNTVYLQMNSLKPEVTAVDYCAAPAAGDEYDYWGQGTQVTVSS | high polyreactivity |
| QVQLVESGGGLVQAGGSLRLSCAASGSIFVSNAMGWYRQAPGKERELVAAITARDFSTYYADSVKGRFTISRDNAKNTVYLEMNSQKPEDTAVYYCAGNSSTYPSDDSYDYWGQGTQVTVSS | low polyreactivity |
| QVQLVESGGGLVQAGGSLRLSCAASGRTFNRNAMGWYRQAPGKERELVASITSRGGSTYYADSVKGRFTISRDNAKNTVYLQMNSLKPEDTAVYYCNATPKFFGRYWGYDYWGQGTQVTVSS | high polyreactivity |
| QVQLVESGGGLVQAGGSLRLSCAASGSTFNNAMGWYRQAPGKERELVAAITRSGVRTYYADSVKGRFTISRDNAKNTVYLQMNSLKPEDTAVYYCAAGFQSRRYYAGYEDWGQGTQVSVSS | high polyreactivity |
| QVQLVESGGVLVQAGGSLRLSCAASGRILFSYGMGWYRQATGKERELVARISWSGGNTHYADSVKGRFTISRDNAKNTVYLQMNSLKPEDTAVYYCNAYYTYWYPRYDYWGQGTQVTVSS | low polyreactivity |

| Sequence | polyreactivity (PSR sort gate) |
| --- | --- |
| QVQLVESGGGLVQAGGSLRLSCAASGRIFHFYAMGWYRQAPGKERELVASITWRGGRTYYADSVKGRFTISRDNAKNTVYLQMNSLKPEDTAVYYCAADFRSGFSSSTTPVQSDWGQGTQVTVSS | low polyreactivity |
| QVQLVESWGGLVQAGGSLRLSCAASGFTYSQYVMGWYIQAPGKERELVASITGNGGSTRYADSVKGRFTISRDNAKNTVYLHMNSLKPEDTAVYYCAARYVYFRWGSFDYWGQGTQVTVSS | high polyreactivity |
| QVQLVESGGGLVQAGGSLRLSCAASGFTLYYYTMGWYRQAPGKERELVASITGGGTTNYADSVKGRFTISRDNAKNTVYLQMNSLKPEDTAVYYCAKGYGASNDPGYVRKRYGYWGQGTQVTVSS | low polyreactivity |
| QVQLVESGGGLVQAGGSLRLSCAASGSTFVFYAMGWYRQAPRKERELVAAITIGGSTYADSVKGRFTISRDNAKNTVYLQMNSLNPEDTAVYYCNADDAPSSFTTLDFTFDYWGQGTQVTVSS | low polyreactivity |
| QVQLVESGGGLVQAGGSLRLSCAASGITFRWYAMGWYRPAPGKEWELVAAMNSRGTSTYYADSVKGRFTISRDNAKNTVYLQMNSLKPEDTSVYYCAATYLYIHGGFRPQYDYWGQGTQVTVSS | high polyreactivity |
| QVQLVESVGGLVQAGGSLRLSCAASGFIFRPYAMGWSRQAPGKERELVAAISWSGDRTYYADSVKGRFTISRDNAKNTVYLQMNSLKPEDTAVYYCAAEGVTRDYDYWGQGTQVTVSS | low polyreactivity |
| QVQLVESGGGLVQAGGSLRLSCAASGRTLKWYAMGWYRQAPGKERELVAAISWSGGSTYYADSVKGRFTISRDNAKNTVYLQMNSLKPEDTAVYYCAVAVTSYSSKKLYYWGQGTQVTVSS | low polyreactivity |
| QVQLVESGGGLVQAGGSLRLSCAASGRTFGKYAMGWYRQAPGKERELVAAITGDGGSTYYADSVKGRFTISRDNAKNTVYLQMNSLKPEDTAVYYCNADPQRRNYDYWGQGTQVTVSS | high polyreactivity |
| QVQLVESGGGLVQAGGSLRLSCAASGSTFYRNVMGWYRQAPGKERELVAAISASGGSTYYADSVKGRFTISRDNAKNTVYLQMNSLKPEVTAVYYCAVDNRQYRYLYYYWGQGSQVTVSS | high polyreactivity |
| QVQLVESGGGLVQAGGTLRLSCAASGFTFTSNAMGWYRQEPGKERELVAAITSSGGITYYADSVKGRFTISRDNAKNTVYLQMNSLKPEDNAVYYCAASISSYNSPGYGYWGQGTQVTVSS | low polyreactivity |
| QVQLEESGGGLVQAGGSLRLTCAASGFTINEYAMGRYIQAPGKERELVAAISRGGTTYYADSVKGRFTISRDNAKNTVYLQMNSLKPEDTAVYYCAAPYFWNTEMDYWGQGTQVSVSS | low polyreactivity |
| QVQLVESGGGLVQAGGSLRLSCAASGSIFTHNAMGWSRQAPGKERELVATISYGGGRTYYADSVKGRFTISRDNAKNTVYLQMNSLKPEDTAVYYCNALRGGPFRWHGYYYWGQGTQVTVSS | low polyreactivity |
| QVQRVESGGGLDQAGGSLRLSCAAYGRTFGLNAMGWYRQAPGKESELVAVISFGDGGKYYADSVKGRFTISRDNAKHTVYLQMNSLKPEDTAVYYCATEYQSTSVWGGHLVINPYDYWGQGTQVTVSS | low polyreactivity |
| QVQLVESGGGLVQAGGSLRLSSAASGSIFRWYAMGWYRQAPGKERELVAAISRGGRTNYADSVKGRFTISRDNAKNTVYLQMNSLKPEDTAVYYCNKVLRNYSSTGVISVLTDYDYWGQGTQVTVSS | high polyreactivity |
| QVQLVESGGGLVQAGGSLRLSCAASGRTFPGYAMGWYRQAPGKERELVATITGNGGSTYYADSVKGRFTISRDNAKNTVYLQMNSLKPDDTAVYYCAAGRRRPYVRAYSGTDYWGQGTQVTVSS | low polyreactivity |
| QVQLVESGGGVVQAGGSLRLSCAASGRTFRSYAMGWYRQAPGKERELVAAISWSGGSTYYADSVKGRFTISRDNAKNTVYLQMNSLKPEDTAVYYCAATVGQRKYQLGYWGQGTQVTVSS | high polyreactivity |
| QVQLVESGGGLVQAGGSLRLSCAASGRIFGVYAMGWYRQAPGKERELVADISWSGSGTYADSVKGRFTISRDNAKNTVYLQMMSLKPEDTAVYYCNVDPAQIHAGYVGYDYWGQGTQVTVSS | low polyreactivity |
| QVQLVESGGGLVQAGGSLRLSCAASGFTLGGNALGWYRQAPGKERELVAAITFSGGSTYYADSVKGRFTISRDNAKNIVYLQMNSLKPVDTAVYYCAKTHGYYYYYTYDYWGQGTQVTVSS | low polyreactivity |
| QVQLVESGGGLVQAGGSLRLICAASGSTFDSYAMGWYRQAPGKERELVAAISRSGGRTYYADSVKGRFTISRDNAKNTVYLQMNSLKPEDTAGYYCAAPVKVGHSLSGGDYWGQGTQVTVSS | high polyreactivity |
| QVQLVESGGGLVQAGGSLRLSCAASGSTFVPYTMGWYRQAPGKERELVAAMSGSGGTDYADSVKGRFTISRDNAKNTVYLQMNSLKPEDTAVYYCATDGLDFWFIYDYWGQGTQVTVSS | low polyreactivity |
| QVQLVESGGGLVQAGGSLRLSCAASGRIFWINAMGWYRQATGKERELVATISSGSTSYADSVKGRFTISRDNAKNTVYLQMNSLKPEDTAVYYCAVTLRYTRSGAYDYWGQGTQVTVSS | low polyreactivity |
